A word on the Kd: it is the free concentration of one partner at which half of the binding sites on the other are occupied at equilibrium, for simple one-to-one binding. A low value points to higher affinity.

These results are taken from patent US20240092867A1 (UNIVERSITY OF CHICAGO, published 2024).

Sequences and labels used below:
T1: placental growth factor (PlGF)-2 (human, UniProt P49763-3 19-170)
T1 construct: mature; Purchased in mature form
T1 sequence (looked up): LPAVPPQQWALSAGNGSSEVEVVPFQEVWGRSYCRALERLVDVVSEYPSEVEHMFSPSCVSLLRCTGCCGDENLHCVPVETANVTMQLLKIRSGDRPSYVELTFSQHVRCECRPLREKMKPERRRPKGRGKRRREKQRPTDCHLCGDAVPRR

T2: recombinant laminin α3 2928-3150 protein (linker domain and LG4 domain) (human, UniProt Q16787 2928-3150)
T2 construct: range 2928-3150; Made in HEK-293F cells; also called laminin alpha 3 LG domain recombinant protein
T2 sequence: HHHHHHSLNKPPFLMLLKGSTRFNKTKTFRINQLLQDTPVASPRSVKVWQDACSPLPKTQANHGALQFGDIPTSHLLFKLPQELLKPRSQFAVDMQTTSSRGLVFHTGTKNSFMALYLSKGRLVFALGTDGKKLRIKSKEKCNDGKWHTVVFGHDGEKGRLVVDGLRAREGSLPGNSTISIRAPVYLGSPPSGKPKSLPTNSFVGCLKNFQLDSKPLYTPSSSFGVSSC

T3: vascular endothelial growth factor (VEGF)-A121 (human, UniProt P15692-9 27-147)
T3 construct: mature; Purchased in mature form, not glycosylated
T3 sequence (looked up): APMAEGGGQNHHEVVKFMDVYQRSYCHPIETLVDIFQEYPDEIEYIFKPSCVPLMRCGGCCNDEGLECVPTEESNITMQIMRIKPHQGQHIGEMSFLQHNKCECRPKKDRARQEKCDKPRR

B1: FabCol-LamLG4 recombinant fusion protein (Fab)
light: EIVLTQSPGTLSLSPGERATLSCRASQSVSSSYLAWYQQKPGQAPRLLIYGASSRATGIPDRFSGSGSGTDFTLTISRLEPEDFAVYYCQQAIGFPQTFGQGTKVEIKRTVAAPSVFIFPPSDEQLKSGTASVVCLLNNFYPREAKVQWKVDNALQSGNSQESVTEQDSKDSTYSLSSTLTLSKADYEKHKVYACEVTHQGLSSPVTKSFNRGEC
heavy: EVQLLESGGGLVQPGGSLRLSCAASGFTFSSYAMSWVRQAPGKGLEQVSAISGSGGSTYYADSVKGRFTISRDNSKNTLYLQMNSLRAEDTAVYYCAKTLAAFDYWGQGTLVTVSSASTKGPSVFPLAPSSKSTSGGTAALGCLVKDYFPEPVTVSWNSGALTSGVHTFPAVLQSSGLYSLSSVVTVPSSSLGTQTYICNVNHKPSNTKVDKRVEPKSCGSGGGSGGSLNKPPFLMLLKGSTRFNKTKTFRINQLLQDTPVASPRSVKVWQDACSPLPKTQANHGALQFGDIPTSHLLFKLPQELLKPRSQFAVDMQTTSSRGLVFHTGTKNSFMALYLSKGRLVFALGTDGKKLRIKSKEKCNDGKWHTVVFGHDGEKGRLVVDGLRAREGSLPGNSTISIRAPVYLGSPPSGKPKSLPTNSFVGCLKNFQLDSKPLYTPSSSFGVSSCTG
B2: placental growth factor (PlGF)-1 (ligand, human, UniProt P49763-2 19-149, looked up)
chain: LPAVPPQQWALSAGNGSSEVEVVPFQEVWGRSYCRALERLVDVVSEYPSEVEHMFSPSCVSLLRCTGCCGDENLHCVPVETANVTMQLLKIRSGDRPSYVELTFSQHVRCECRPLREKMKPERCGDAVPRR
notes: mature; Purchased in mature form

In one assay the target is T4, bovine type I collagen (bovine, UniProt P02453 178-1191; P02465 89-1102).
T4 construct: PureCol, Advanced BioMatrix; coated on the plate; also called collagen I; PureCol
As to the kind of experiment: ELISA, collagen I coated, 0.01-30 nM binder. On the procedure: ELISA plates (NUNC MaxiSorp, ThermoFisher Scientific) were coated overnight with 10 μg/mL of bovine type I collagen (PureCol, Advanced BioMatrix, San Diego CA, USA) at room temperature. The plate was further blocked using 2% bovine serum albumine (BSA) for 2 h at room temperature. […] The plate was washed thrice in PBST, and an horseradish peroxidase-conjugated anti-human Fab antibody (Jackson ImmunoResearch,) was used to detect bound FabCol variants. […] Absorbance at 450 nm was read using […], and corrected using the absorbance at 570 nm. Curve fits and dissociation constant KD were computed using Prism (GraphPad Software Inc., USA).
In general terms: In an ELISA, binding on a coated surface is turned into a signal by an enzyme label.

Assay [1] has as its target T5, vascular endothelial growth factor (VEGF)-A165 (human, UniProt P15692-4 27-191).
T5 construct: mature; Purchased in mature form, not glycosylated
As to the kind of experiment: ELISA; growth factors coated at 100 nM, FabCol variants at 100 nM in solution, HRP-anti-human Fab [panel F].

The target in assay [2] is T1, placental growth factor (PlGF)-2. Described as above.
In assay [3] the target is T6, platelet-derived growth factor (PDGF)-BB (human, UniProt P01127 82-190).
T6 construct: mature; Purchased in mature form
T6 sequence (P01127 82-190): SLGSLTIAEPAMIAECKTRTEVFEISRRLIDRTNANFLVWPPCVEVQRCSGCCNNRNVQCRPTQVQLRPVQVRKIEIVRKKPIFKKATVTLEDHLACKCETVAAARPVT
The description is as above.

Assay [4] has as its target B2. The assay is described as above.
The next assay concerns the target T7, recombinant human BMP-2 (human, UniProt P12643 283-396).
T7 construct: also called rhBMP-2
As to the kind of experiment: ELISA, rhBMP-2 coated 50 nM, binder 50 nM.

In assay [5] the target is T2, recombinant laminin α3 2928-3150 …. As to the kind of experiment: ELISA, LG domain protein coated. Here is the method: Affinity of GFs against recombinant laminin LG domains. ELISA plates were coated with 1 μg/mL (A) α3₂₉₂₈₋₃₁₅₀, (B) α4₈₂₆₋₁₈₁₆, or (C) α5₃₀₂₆₋₃₄₈₂ and further incubated with 1 μg/mL of VEGF-A165, VEGF-A121, PlGF-2, PlGF-1, PDGF-BB, or FGF-2 solution. Bound GFs were detected using a specific antibody for each GF (n=4, mean±SEM). Statistical analyses were done using the Mann-Whitney U test by comparing the signals obtained from the laminin domain- and the BSA-coated wells. *p<0.05, **p<0.01. […] A SPR chip was functionalized with the laminin α3₂₉₂₈₋₃₁₅₀ recombinant protein (˜1000 RU), and each GF was flowed over the chip at indicated concentrations. Curves represent the specific responses (in RU) to laminin. Experimental curves were fitted with Langmuir binding kinetics.
(§1) ELISA tests were performed as described above. […] 1 μg/mL of BSA served as non-binding protein control. After blocking with 2% BSA PBS-0.05% Tween 20 (PBS-T) solution, 1 μg/mL of the recombinant human proteins (VEGF-A121, VEGF-A165, PlGF-1, PlGF-2, PDGF-BB or FGF-2) or 10 μg/mL of biotinylated heparin (Sigma-Aldrich) were added. Bound GF was detected with biotinylated antibodies for human VEGF, PlGF, PDGF-BB, or FGF-2 (R&D Systems). The antibodies were detected by streptavidin-HRP (R&D Systems).

The target in a further assay is T8, laminin-111 (human, UniProt P25391 18-3075; P07942 22-1786; P11047 34-1609).
T8 construct: Full-length recombinant human laminin isoform (BioLamina); Chain composition is read from the isoform name
Description: ELISA, GF coated, laminin 10 nM.

The next assay addresses T9, laminin-332 (human, UniProt Q16787 28-1724; Q13751 18-1172; Q13753 22-1193, limits assumed).
T9 construct: Full-length recombinant human laminin isoform (BioLamina); chains read from the isoform name
As to the kind of experiment: ELISA, GF coated, laminin 10 nM.

A further assay deals with T10, laminin-421 (human, UniProt Q16363 25-1823; P55268 33-1798; P11047 34-1609).
T10 construct: Full-length recombinant human laminin isoform (BioLamina); chains read from the isoform name
As to the kind of experiment: ELISA, GF coated, laminin 10 nM.

The next assay concerns the target T11, laminin-211 (human, UniProt P24043 23-3122; P07942 22-1786; P11047 34-1609).
T11 construct: Full-length recombinant human laminin isoform (BioLamina); chains read from the isoform name
Description: ELISA, GF coated, laminin 10 nM.

The target of the next assay is T12, laminin-511 (human, UniProt O15230 36-3695; P07942 22-1786; P11047 34-1609).
T12 construct: Full-length recombinant human laminin isoform (BioLamina); chains read from the isoform name
As to the kind of experiment: ELISA, GF coated, laminin 10 nM.

The next assay has as its target T13, laminin-521 (human, UniProt O15230 36-3695; P55268 33-1798; P11047 34-1609).
T13 construct: Full-length recombinant human laminin isoform (BioLamina); chains read from the isoform name
As to the kind of experiment: ELISA, GF coated, laminin 10 nM.

The target in another assay is T14, laminin-411 (human, UniProt Q16363 25-1823; P07942 22-1786; P11047 34-1609).
T14 construct: Full-length recombinant human laminin isoform (BioLamina); chains read from the isoform name
Description: ELISA, GF coated, laminin 10 nM.

In assay [6] the target is T15, recombinant human vWF A1 domain (human, UniProt P04275 1261-1468, limits assumed).
T15 construct: domain: A1; also called vWF A1 recombinant protein; recombinant A1 domain
As to the kind of experiment: ELISA; recombinant vWF A1 domain coated (10 µg/mL, legend paragraph 67), GF in solution, detected with anti-PlGF antibody [panel B]. Here is the method:
FIGS. 18A-C. […] Bound GFs were detected using a specific antibody for each GF (n=4, mean±SD). Statistical analyses were done using ANOVA with Tukey's test or Student's t-test. *p<0.05, **p<0.01.
ELISA tests were performed as described above. […] After blocking with 2% BSA solution containing PBS-T, 1 μg/mL of the recombinant human proteins VEGF-A121, VEGF-A165, PlGF-1, PlGF-2, PDGF-BB, FGF-2, CXCL-12α and CXCL-12γ were added. 1 μg/mL of BSA served as non-binding protein control. Bound GF or chemokine was detected with biotinylated antibodies for human VEGF-A, PlGF, PDGF-BB, FGF-2, or CXCL-12 (R & D Systems). The antibodies were detected by streptavidin-HRP (R & D Systems). Color development and the absorbance measurement were done as described above.

Another assay addresses T16, human plasma-derived vWF (human, UniProt P04275 764-2813).
T16 construct: mature; also called plasma-derived purified vWF; von Willebrand factor
As to the kind of experiment: ELISA, GF coated 50 nM, vWF 1 µg/mL. Here is the method:
ELISA tests were performed as previously reported1. In brief, ELISA plates (med-binding, Greiner Bio-One) were coated with 50 nM GFs at 37° C. for 2 hrs. […] Then, HRP conjugated goat anti-rabbit antibody (Jackson ImmunoResearch) was added. After 60 min of incubation, 50 μL TMB substrate (Sigma-Aldrich) was added. The reaction was stopped by adding 25 μL of 2N H2SO4. Subsequently, the absorbance at 450 nm was measured and subtracted the absorbance at 570 nm.

Assay [7] concerns the target T6, platelet-derived growth factor (PDGF)-BB. Description: ELISA; peptide coated (10 µg/mL, legend paragraph 53), GF in solution, BSA-coated wells as control [panel E]. Here is the method: (§2) (A) The location of laminin-derived peptides in the LG domain of laminin α3, α4, and α5 chains. (B-F) Affinity of heparin and GFs against chemically synthesized peptides derived from the LG domain of laminin α3, α4, and α5 chains. ELISA plates were coated with 10 μg/mL laminin peptide and further incubated with (B) biotinylated heparin, (C) VEGF-A165 and VEGF-A121, (D) PlGF-2 and PlGF-1, (E) PDGF-BB, or (F) FGF-2. Concentrations were 1 μg/mL for GFs and 10 μg/mL for heparin. Bound heparin was detected with streptavidin, and bound GFs with a specific antibody for each GF (n=4, mean±SEM). Statistical analyses were done using the Mann-Whitney U test by comparing the signals obtained from the laminin peptide- and the BSA-coated wells. *p<0.05, **p<0.01.
as §1

Assay [8] has as its target T5, vascular endothelial growth factor …. As to the kind of experiment: ELISA, peptide coated, GF 1 µg/mL. In short, it runs like this:
(§3)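 Wells coated with 10 μg/mL laminin α3/α4/α5 LG-domain peptides, BSA-coated wells as non-binding control, blocked with 2% BSA PBS-T. Recombinant human GFs added at 1 μg/mL; bound GF detected with GF-specific biotinylated antibody plus streptavidin-HRP (n=4, mean±SEM).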

Assay [9] concerns the target T1, placental growth factor (PlGF)-2. Description: ELISA; peptide coated (10 µg/mL, legend paragraph 53), GF in solution, BSA-coated wells as control [panel D]. On the procedure: as §2, §1
Assay [10] concerns the target B2. Description: ELISA, peptide coated. The method, boiled down:
as §3

The target of assay [11] is T3, vascular endothelial growth factor …. As to the kind of experiment: ELISA, peptide coated. The method, boiled down: as §3

T9 sequence (Q16787 other isoform, or with tags, fused parts or gaps limits assumed, chain 1 of 3): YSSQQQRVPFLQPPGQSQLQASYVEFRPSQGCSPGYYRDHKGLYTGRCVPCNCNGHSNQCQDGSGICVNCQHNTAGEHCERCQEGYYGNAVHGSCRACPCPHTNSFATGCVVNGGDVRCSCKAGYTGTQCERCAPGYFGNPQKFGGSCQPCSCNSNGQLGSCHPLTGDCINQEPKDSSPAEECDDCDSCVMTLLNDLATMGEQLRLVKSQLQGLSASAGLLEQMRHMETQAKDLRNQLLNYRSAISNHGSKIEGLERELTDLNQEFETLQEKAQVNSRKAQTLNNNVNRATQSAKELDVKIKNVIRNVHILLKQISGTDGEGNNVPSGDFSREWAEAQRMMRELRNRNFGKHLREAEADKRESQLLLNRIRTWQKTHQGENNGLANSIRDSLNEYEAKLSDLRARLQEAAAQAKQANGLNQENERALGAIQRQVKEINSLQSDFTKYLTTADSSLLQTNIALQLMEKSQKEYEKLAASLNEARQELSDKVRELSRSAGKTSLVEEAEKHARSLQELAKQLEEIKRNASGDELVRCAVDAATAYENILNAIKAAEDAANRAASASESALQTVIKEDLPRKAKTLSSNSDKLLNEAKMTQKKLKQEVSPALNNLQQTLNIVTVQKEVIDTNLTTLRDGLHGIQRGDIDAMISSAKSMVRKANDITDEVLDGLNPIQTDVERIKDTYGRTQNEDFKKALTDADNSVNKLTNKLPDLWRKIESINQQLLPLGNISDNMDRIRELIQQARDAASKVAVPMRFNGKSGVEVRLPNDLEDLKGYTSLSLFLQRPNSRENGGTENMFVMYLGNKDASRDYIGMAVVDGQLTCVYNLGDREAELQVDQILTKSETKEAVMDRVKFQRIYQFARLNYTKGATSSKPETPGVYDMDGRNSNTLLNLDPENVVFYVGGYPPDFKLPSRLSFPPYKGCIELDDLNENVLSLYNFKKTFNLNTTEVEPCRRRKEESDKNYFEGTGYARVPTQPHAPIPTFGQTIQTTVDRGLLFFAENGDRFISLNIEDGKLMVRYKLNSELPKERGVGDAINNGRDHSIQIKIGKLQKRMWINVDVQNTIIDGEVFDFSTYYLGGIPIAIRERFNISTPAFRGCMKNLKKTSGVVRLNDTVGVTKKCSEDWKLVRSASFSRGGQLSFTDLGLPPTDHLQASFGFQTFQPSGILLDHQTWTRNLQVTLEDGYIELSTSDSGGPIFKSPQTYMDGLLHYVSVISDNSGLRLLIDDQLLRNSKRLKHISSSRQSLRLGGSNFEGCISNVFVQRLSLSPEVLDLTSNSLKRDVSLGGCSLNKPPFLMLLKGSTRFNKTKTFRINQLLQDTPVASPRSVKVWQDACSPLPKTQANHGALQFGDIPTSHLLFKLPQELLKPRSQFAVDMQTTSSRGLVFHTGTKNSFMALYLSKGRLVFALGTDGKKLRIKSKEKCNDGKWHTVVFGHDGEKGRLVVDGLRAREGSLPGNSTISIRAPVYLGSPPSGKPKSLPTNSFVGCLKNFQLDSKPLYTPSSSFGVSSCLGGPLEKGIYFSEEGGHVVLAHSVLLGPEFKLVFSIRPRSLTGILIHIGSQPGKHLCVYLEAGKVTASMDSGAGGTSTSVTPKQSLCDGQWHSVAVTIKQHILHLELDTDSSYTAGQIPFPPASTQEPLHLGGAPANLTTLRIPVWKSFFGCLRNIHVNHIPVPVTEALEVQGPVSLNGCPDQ
T9 sequence (Q13751 18-1172 limits assumed, chain 2 of 3): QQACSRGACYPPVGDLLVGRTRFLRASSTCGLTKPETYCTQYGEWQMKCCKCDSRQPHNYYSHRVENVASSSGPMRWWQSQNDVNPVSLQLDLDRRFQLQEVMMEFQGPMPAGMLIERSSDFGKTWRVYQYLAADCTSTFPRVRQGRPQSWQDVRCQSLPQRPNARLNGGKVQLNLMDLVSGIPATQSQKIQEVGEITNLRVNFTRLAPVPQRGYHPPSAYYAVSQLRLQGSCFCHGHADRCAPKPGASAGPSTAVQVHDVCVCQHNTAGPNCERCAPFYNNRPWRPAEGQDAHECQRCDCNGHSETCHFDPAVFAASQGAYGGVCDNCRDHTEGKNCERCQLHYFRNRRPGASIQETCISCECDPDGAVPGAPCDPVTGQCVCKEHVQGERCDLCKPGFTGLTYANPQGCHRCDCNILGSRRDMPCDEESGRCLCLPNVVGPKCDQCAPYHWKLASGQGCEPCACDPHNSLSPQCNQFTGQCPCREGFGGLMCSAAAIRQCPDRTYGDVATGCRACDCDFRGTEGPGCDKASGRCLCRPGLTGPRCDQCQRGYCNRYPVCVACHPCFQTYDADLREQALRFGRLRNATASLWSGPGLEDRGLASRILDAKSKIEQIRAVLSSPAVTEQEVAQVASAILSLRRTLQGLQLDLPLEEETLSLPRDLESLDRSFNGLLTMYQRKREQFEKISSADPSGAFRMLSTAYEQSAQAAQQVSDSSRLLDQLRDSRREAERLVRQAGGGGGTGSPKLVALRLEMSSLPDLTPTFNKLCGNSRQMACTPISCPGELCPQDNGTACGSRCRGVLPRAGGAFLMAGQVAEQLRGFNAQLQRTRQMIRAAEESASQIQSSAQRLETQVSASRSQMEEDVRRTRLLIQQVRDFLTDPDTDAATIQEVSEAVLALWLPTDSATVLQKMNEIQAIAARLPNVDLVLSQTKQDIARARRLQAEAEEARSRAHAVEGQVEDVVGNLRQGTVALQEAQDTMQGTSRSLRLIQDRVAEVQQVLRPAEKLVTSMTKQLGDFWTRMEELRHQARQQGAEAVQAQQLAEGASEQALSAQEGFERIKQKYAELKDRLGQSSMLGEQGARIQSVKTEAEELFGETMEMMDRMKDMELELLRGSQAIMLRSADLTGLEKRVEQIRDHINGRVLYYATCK
T9 sequence (Q13753 22-1193 limits assumed, chain 3 of 3): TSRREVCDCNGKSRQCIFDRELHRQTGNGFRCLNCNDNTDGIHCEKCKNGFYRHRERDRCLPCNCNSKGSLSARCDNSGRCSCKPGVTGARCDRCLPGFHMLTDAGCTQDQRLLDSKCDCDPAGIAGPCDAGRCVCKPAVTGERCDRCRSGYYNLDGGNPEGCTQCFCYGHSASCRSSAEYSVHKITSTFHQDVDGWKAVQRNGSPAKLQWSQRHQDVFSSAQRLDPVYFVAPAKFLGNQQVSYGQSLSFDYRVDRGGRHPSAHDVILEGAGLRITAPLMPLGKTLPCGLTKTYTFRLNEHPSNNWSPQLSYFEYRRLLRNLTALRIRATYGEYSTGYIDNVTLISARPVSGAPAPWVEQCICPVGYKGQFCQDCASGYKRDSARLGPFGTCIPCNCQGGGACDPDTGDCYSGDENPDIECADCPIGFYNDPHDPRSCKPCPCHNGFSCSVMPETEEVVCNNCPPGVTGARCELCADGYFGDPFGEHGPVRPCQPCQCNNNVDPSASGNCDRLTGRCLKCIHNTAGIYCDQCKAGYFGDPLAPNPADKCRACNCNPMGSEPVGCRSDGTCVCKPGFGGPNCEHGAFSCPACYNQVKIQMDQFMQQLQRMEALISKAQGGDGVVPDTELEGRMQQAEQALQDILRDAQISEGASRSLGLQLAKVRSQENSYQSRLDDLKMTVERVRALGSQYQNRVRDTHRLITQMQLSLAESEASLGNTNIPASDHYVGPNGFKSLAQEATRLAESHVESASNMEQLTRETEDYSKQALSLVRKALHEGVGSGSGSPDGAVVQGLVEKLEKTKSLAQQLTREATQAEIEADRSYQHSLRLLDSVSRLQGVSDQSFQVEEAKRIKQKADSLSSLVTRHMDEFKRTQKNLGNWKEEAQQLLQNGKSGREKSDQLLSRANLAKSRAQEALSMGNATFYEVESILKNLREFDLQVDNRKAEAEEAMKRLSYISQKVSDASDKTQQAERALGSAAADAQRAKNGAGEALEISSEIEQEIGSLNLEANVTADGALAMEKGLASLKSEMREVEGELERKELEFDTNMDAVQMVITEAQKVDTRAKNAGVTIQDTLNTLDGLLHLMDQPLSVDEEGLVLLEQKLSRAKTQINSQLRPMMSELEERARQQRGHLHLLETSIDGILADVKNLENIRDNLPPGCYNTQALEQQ
T7 sequence (P12643 283-396 limits assumed): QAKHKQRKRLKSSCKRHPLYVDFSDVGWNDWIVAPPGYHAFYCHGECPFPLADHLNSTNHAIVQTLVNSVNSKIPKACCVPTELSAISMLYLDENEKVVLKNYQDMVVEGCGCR
Description for recombinant human BMP-2: ELISA plates (NUNC MaxiSorp) were coated with 50 nM of recombinant human BMP-2 (CHO produced, R&D Systems, Minneapolis MN, USA) overnight at room temperature.

Molecule B1 had a Kd with bovine type I collagen of roughly 2.3 nM. In addition, the binding result is given as “binds” in [1]; “binds” in assay [2]; “binds” in assay [3]; “no binding (tested: 100 nM (single concentration))” in assay [4]; “binds” with recombinant human BMP-2.
With B2, the binding result in assay [5] was “no binding (tested: 1 µg/mL)”; with laminin-111, “no binding (tested: A450 0.1)”; with laminin-332, “no binding (tested: A450 0.1)”; with laminin-421, “no binding (tested: A450 0.1)”; with laminin-211, “no binding (tested: A450 0.1)”; with laminin-511, “no binding (tested: A450 0.1)”. For the same molecule, the binding result was “no binding (tested: A450 0.1)” in the assay with laminin-521, “no binding (tested: A450 0.1)” with laminin-411, “no binding (tested: 1 µg/mL PlGF-1 (single concentration))” in assay [6] and “no binding” in the assay with human plasma-derived vWF.
In the case of KNSFMALYLSKGR (Chemically synthesized (Genscript)) [laminin α3 3031-3043 peptide (LG4)], the binding result was “no binding (tested: 1 µg/mL PDGF-BB (single concentration))” in assay [7]; “binds” in assay [8]; “no binding (tested: 1 µg/mL PlGF-2 (single concentration))” in assay [9]; “no binding (tested: 1 µg/mL)” in assay [10]; “no binding (tested: 1 µg/mL)” in assay [11].
